Protein production data for 21 sequences are collected here from a protein production outcome set (Wang et al. 2014).
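Further: failed if final PepcDB status was selected cloned or expressed and not failed if soluble or beyond.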

A short description of the data set: label from the status in PepcDB records.
“MWPFRKEQERGGWLIGWNPHGLLVIVVAVVHDPRVENATAALNKLKESEGDIRATAHRKQHKDVPSATSLLILGWMHSKQATLDKSEYADAWVRSQHSRAELWLELNEGPLLHQLYCCGSPVQPCHLHVLRSDPTVSYAVTSTAFSAVARHDRGDLVKLVEGKMQPICVEGANSTLEGVLLPSHMVHSAGPRTKMRRMVGSDPLTQDEEEKQEGAKQRTEDDRVSVGSSGSGEGSTESQSVRGSETPRFGGELHPRLDFPTSTDYGELSSLLRASAYGKILRELCENKVSNATDGTAATARLCAYWKNCGNRFTGFLTKILVVFHLVLKWPGNVSYTAALLEFRLRMVIHWLLLLRGDTRVCCLHPVLPHIQHNDPALRRFCVVDFLVRFAVDTICGMLLSLLLSHGSGLLVTKAVSWCRWLLYDLHMEYMDWFEGWPAGLKMNGDLSMTLSCIAKAVLEASWASVEDLSNVGLFYKLLIFVAPLGASCAFAFVADLCLIASLHLYLVFHSVSLPYRFARFMLRNLFLQFQGKKHNPLRHRTDTYDFPVEQTLVATVIFTIIVFLLPTLAVYHVYFALICIAVWLLQGALLVAAHLTLYLPLYPLFYWALYRRQWPGGVALTGPKVLSTPQHSRALNPFARGSLTVEFGVVSKPLELRVLLADFLLVAHVVGRLHPFDMIVAVFKVRRWERTNPGKCLVPPLPADIMPLTGMTLPKTAVA”: the protein production result is on record as “failed”.
With “MWPVVALTLFVVTFGFVLGGLVVGGKVQARPVSFLLFSGLFLFSSFFGMLVSLFTTGWFPFRLLDVVIVALCFVFIVSCFMRFHPTFGFFQFDGRANMILFAVISFFLGLQLGMLGWRTFFILFLALVFTAGLFAGGVFQVRAVMKFYSRQPSFHFLPLIWLLFATVLKLL” the entry was “failed”.
As to “MWSCPTLNAPRAAQKWLPVRATPHLCVLHMSRLMLSSTLIDELSYVRKDQLETSALFELIAHRYERHSIAITANEPFSGWSDAMTVAAIDRLVHHSTIIEMNGESYRKRAAVARGASTQNANDEPEDPPNRSSLEHHHHHH”, the protein production entry is recorded as “failed”.
In the case of “MWSGVVTERKISRRLRLIKRVREEYVRDDVSCGFECCGGPCRASGKASVFAIPDANVVSRYRALLKSDYVAAIICQSVLSELSKNDERGLRDVARERGYPVFCDSFCRSTHGKGLEGVLEFYRAHLPQHNFTILDIGNIGEYGRYVSDDIRDLLENVDEKEATEYEEYVENLDILYGRKGLYRGTLEVSMYNCYSGFVVDGDVKVLVVGKKNMNRALSGDEVYVEVVDEYDEDGILLDNEEGTQETRKGAAGEGVFGKVVGIHRRKCRAVIGSISPRTVHGDGAQNVLVIPIDRRIPAIRIRTSQAEELMNKRLCVEIDGWERTSNYPSGHYYRRLGTLGDRNAEMEAVLVANGITYYNKNWAEILRVPWMNEDIFGMEKAYNEVREGTREDFRELSIVSIDPPDCEDIDDALHCRLLPNGNWEVGVHIADVTYYVTKGSEIDKIAADRGTTIYLPEWRIDMLPPALSTDLCSLVAGKDRAAFSVVWEMSSDVRVVRTHFCRSLIRSKRSFSYNEAYDAVQGLVDAGDEVSRSLRMLLEISRVLRSRRFAKGSLDLSTRQLVFREGGFEMKEYFPTNFLVEEFMVLANISVASFIYHHHPDSSLLRKHPPPSVLDIGLDIDTSSPRALSESLEKMEGVRKDLAKRMLIRSMNQAVYVVSGETPSLHHYGLATPIYTHFTSPIRRYADIIVHRILNHILQTAPTKEAQINKLGIVTFRARKRTDGESMDEVFVDEDMCRNMNSRHRAARKAAWECDKLTVYMALRNEEPVVRGFVTNIKPNGIVVYVPEYSLEEVVVSEGCFEMFQEVWVKIRRDDEKFFLRRRFTFEIVGLSSPC”, the protein production entry is recorded as “failed”.
The value for “MWYDYRFCAYPDRTGVAAEAERHIDIHRQAYNHTRYEYNALDTDEDNIGSAYQHQKRLTEWKDEWSVFSEVHSKALQKTVERFYDNLSNLSEKKQNGHKVGWLKWKPPREYQSVTYSQSGFELKNTSGRTATLWLSKIGDIPIRYHRPIPDNATIKEVTLKKETTGEWYVTFGLEVEDTTLPEKPDVDDLDAEDCVGIDLGITNYIYTSDGDSVDWLNLSDEYERLRREQRNLSRKEHRSNNWKKQRREVAKVKRRIKRKVEDFQHKLTTWLVKTYDAVFVEDLNVSGMLQQRGNARNKQDAAWRGFINMLEYKGDLYGTHVVQVNPAGTTKECAECGVETEKPLWVREHSCPSCGFEADRDANASYNVLSRGLRELGLGQAEVTPVETATAVETDGGRSSSVPASRVIETGSLGVVRKTESSVMTRDEVPRTT” was “failed”; that for “MWYSTVRNPSIALIKQGYHILAEYNLVKEELKNIYAIPSYACGLHWFGVIFVHSGIYAGSVFRFSILLPENFPADISLPTVVFSTEVLHPHICPQNKTLDLAHFLNEWRKDEHHIWHVLRYIQAIFADPEGSICTGQSSSGDLVIMDEVRNMNALNMLAKSRPEYIKRVQEQAILSRNLIYDRPPTEDPHYIIVEPYCAERHLKFMDQLKSPCWKEATSMDCSQPSEYLGHIDSSRQLDEEEANQVEKLHRGRIPEHQREESEVSL” was “failed”; that for “MYAPERQQEILRLARDGGRVDVVSLAEEFQVTAETIRRDLKALDRAGLLRRVHGGAIPAGRLDFEPDLAERESTAADEKDRIARAALAELPAEGTLILDAGSTVARMAAAIPPDASLTVVTHSLPIAARLADHPGIQLHIVGGRVRHRTRAAVDAWALRAYGEIRADVAVVAANGFSVEHGLTTPDLAEAAVKRAALTAARRVVLLADSSKYAQEHFARFGALGDVDLLITDQGLTPEDAGDIERAGTEVVRA” was “failed”.
With “MYEIPWSKPVNINMLDGRCRTVVGPLDAMHCLQSEWPVRDGAYYGCAIRACNAALKRRKRPEDARAAFIAALREAFLTVVPMQEEGHGPRPLE” the entry was “not failed”; with “MYFVDRSKIEKTLGFFEHQLALFDSQTDWQSEIGELALQRIGHLLIECILDTGNDMIDGFIMRDPGSYDDIMDILVDEKVVTEKEGDELKKLIAYRKTLVQQYLLADSGELYRLIKAHQTALQDFPKRIRSYLETELGPVSAFK”, “not failed”.
“MYGGIYVNNGYSPMSSNQQNVSVEHDIIMRGRRVIDITGVKQVESFDSEEFLLETVMGFLTIRGQNLQMKNLDVEKGVVSIKGKVHEMLYIDENQGEKTKGFFSKLFKLEHHHHHH”: the protein production result was “not failed”.
The value for “MYIHLGDDFVVSTREIVAIFDYKAKTSPIVEEFLSKQKQRIVSSNSTPKSIVVTLQSIYFSPLASGTLKKRAQSKPEIDSLEHHHHHH” was “failed”; that for “MYIICSQFSASEPVNPYALLGAAIVSELLGTTSLKLSEGFSRPVPSLGVVVGYGLAFYLVSLTLEDLPIGVVYGTWAALGIVGVAAIGIVVFDEPIDLPGAVGILLIIIGVYCVNVLSEMSAH” was “failed”.
For the sequence “MYKILEKKEIAMRNTWYKVYAPHVAKKVQPGQFVIVRAFPNGERIPLTPVMWDREEGWIVLIVFTRGKTTMRMAVELKEGDSLLNVAGPLGTPVPMEKFGKILAIGAYTGIVEVYPIAKAWQEIGNDVTTLHVTFEPMVILKEELEKAVTRHIVEPVPLNPNQDFLANMKNVSQRLKEKVRELLESEDWDLVFMVGPVGDQKQVFEVVKEYGVPMKVDLHPIMVDGTGMCGACRVTVGGEVKFACVDGPEFDAYQVDWDELIHRVGFYAKLEKLALEKYMEELKAKGVILEHHHHHH”, the protein production result is “failed”.
With “MYKNILILGRGIGQVMFQNNALSGGLMLLGIAFNSWQLAVLSVLGTVVSTLTASLSGYDKEDIRNGLYGFNGTLVGIAIGVFMEINVTSILLLISGSAFSTWVARCFRYQNRVSGLTAPFIFVVWLLLVGCHYLYPSLLLSSSLEKPELTMDIFRSFCLNIGQVMFQGNILSGLFFLLGILINSRMNALYTLTGAILPLFMILYPHTDLAAWNLGLLGYNGVLCAIALGDKTGIGVVKAIFSIILSIVLQLTGMHMGIVTLTAPFVFSVWITGGLFSVFRSKS” the entry was “failed”.
With “MYLEKINSPEDVKKLSIDEMKDLSTEIREVLLKKLSEHGGHIGPNLGIVELTIALHYVFNSPKDKIVYDVSHQSYIHKMLTGRKEAFINSEKYDEVSGYSNPEESEHDFFNIGHTSTSISLACGLAKARDVKDETDNVIAIIGDGSLSGGEAYEGLNNAAETGTNMIIIVNDNDMSIAENHGGLYKNLKELRDTEGKSECNFFKAMGLDYHYVKDGHDLEQLIGVFNKVKDTKQPVVVHIHTVKGKGFKFAEKNKEQWHWGMPFVLETGASKVSMGSAENYGNLTGEYLLDYMKRDPKVVAITSGTPAVFGFWKERRNEAGRQFVDVGIAEEHAVALASGIAANGGNPVYGVYSTFLQRTYDQLSQDLCINNNPAVLLVFAASVYGMNDVTHLGLYDIGMMSNIPNMVYLAPTCKEEYFAMLKWAMIQKDHPVAIRVPAMGVIESGVVDNTDYSKLNKYEVTKAGKDVAVIALGDFYQLGQSVTEKLSQENGINATLINPKYITGIDEELLEGLKKEHKLVITLEDGILDGGFGEKIARYYGASDMKVLNYGIKKELLDRYVPDELMKKNRLTDVQIVEDIMNIIK” the entry was “failed”; with “MYLKELSMMPGVSGDEGKVRDFIKSKIEGLVDNLYTDVLGNLIALKRGRDSSKKLLVSAHMDEVGFVVSKIEKDGKVSFLPVGGVDPRILPGKVVQVKNLKGVIGYRPIHLQRDEENTPPRFENLRIDFGFSSADEAKKYVSIGDYVSFVSDYIEKNGRAVGKAFDDRAGCSVLIDVLESGVSPAYDTYFVFTVQEETGLRGSAVVVEQLKPTCAIVVETTTAGDNPELEERKWATHLGDGPAITFYHRGYVIPKEIFQTIVDTAKNNDIPFQMKRRTAGGTDAGRYARTAYGVPAGVISTPARYIHSPNSIIDLNDYENTKKLIKVLVEEGKIVEVVS”, “not failed”; with “MYLPTHFKQENQAELFDLIEHHPLGTLIVMHADGLEVNHIPFELDRLHLPAGILRGHIAKANPLASLLSEPQSAYVIFQAEQHYISPNWYPGKQEHHRVVPTWNYRVVHATGQLSVIEDQKYLRGVLARLTRQHEADQPAPWRLSDAPADFIEQQLEKIMAIEFNIESIIGKFKLSQN”, “failed”.
The value for “MYLPTHFKQENQAELFDLIEHHPLGTLIVMHADGLEVNHIPFELDRLHLPAGILRGHIAKANPLASLLSEPQSAYVIFQAEQHYISPNWYPGKQEHHRVVPTWNYRVVHATGQLSVIEDQKYLRGVLARLTRQHEADQPAPWRLSDAPADFIEQQLEKIMAIEFNIESIIGKFKLSQNRSQADVAGVIAALNELEPQIANSIHKFYPK” was “failed”.
Consider “MYLTCRFEESKSAEKAVVALEESTSGEPKTPTESHEKLRKVRSDQGSSTTSSNQENIGSSSVSFRNQVLQSTVTNQKQDSPIPVESNREKAASKEVEAGSQSTNEGIAGQSSSTEKPKEEESAKQRWSRSQREAALMKFRLKRKDRCFDKKHLKQIQDQTDSMEMYKNGLQVRYQSRKKLAEQRPRVKGQFVRTVNSDASTKS”, for which the protein production entry is recorded as “failed”.
Regarding “MYLTLTIAAMPAYNEAHVIAEVILGCKKYVDNVIVVDDGSSDNTAEVARSAGGYVVKHEVNKGYGAALKSCFKLAREFNADVMIIMDSDGQHNPDEIPRLLEPLKHGADLVIGSRFINGNGKNVPAYRKVGMKILDIATYLAGGILVTDSQSGFRAYGKKAIENVRFDGNNMSAGSEILLYIKDHNLKFTEVEIHCRYDLDQCSSQNPFLHGMEVAFQILKNMGFRRPLYYFTVPGILLIAAGLLIEIAFLHLVGSFGFGVISLIFLMILTGIFMVFTGVILHLVSKMISQIVPGQKGTESLNDGF”, the protein production entry is “failed”.
The value for “MYLTREEERILAGEEGEARAKALEVIVKVGEAVGAERLIPIKHAHVSGASYMTIGDAGLRFLARLAESGARFSVPTTVNPVSYDVEEPGAIPMTRLSPRIVKAQSEILKALEAMGADLILTCTPYYTEVPRRVGLREGDSVAWGESSAVAYANSVLGIHTNREGGPLALMAGIAGRTYFYGAHDPEWRKPRVAYRLETPKVLDETEAGVLGEVIATQHRDEHPPLLDAPLGGEAALKEFSAAVGSAGSLAMVHITGVTPGDPGDMIEEVVTMDYGDLARRMEDLAPGFEPDILYVGCPHASIEELRRLYRALSKAGERAGRRTVVSISRSLYLQALREGLVEKLKGLGVRFVRDSCLIVSPFSSGARGVRVATNSYKAYFYLSKKGVEVGLAPIEALPKLVS” was “failed”.
